Laboratory results: patent US7147850

Assays:
[1] = target: MUC-1 glycoprotein on untreated ZR-75-1 cells (glycosylated MUC-1) (human) (UniProt P15941); assay: FACScan on untreated ZR-75-1 cells (PBS control 6.23)
[2] = target: MUC-1 on ZR-75-1 cells deglycosylated with 4 mM Phenyl-N-alpha-D-Glucosamide (unglycosylated MUC-1) (human) (UniProt P15941); assay: FACScan on deglycosylated ZR-75-1 cells (PBS control 6.76)
Sequence of MUC-1 on ZR-75-1 cells deglycosylated with 4 mM Phenyl-N-alpha-D-Glucosamide (unglycosylated MUC-1) (human) (P15941 24-1255, form in doubt): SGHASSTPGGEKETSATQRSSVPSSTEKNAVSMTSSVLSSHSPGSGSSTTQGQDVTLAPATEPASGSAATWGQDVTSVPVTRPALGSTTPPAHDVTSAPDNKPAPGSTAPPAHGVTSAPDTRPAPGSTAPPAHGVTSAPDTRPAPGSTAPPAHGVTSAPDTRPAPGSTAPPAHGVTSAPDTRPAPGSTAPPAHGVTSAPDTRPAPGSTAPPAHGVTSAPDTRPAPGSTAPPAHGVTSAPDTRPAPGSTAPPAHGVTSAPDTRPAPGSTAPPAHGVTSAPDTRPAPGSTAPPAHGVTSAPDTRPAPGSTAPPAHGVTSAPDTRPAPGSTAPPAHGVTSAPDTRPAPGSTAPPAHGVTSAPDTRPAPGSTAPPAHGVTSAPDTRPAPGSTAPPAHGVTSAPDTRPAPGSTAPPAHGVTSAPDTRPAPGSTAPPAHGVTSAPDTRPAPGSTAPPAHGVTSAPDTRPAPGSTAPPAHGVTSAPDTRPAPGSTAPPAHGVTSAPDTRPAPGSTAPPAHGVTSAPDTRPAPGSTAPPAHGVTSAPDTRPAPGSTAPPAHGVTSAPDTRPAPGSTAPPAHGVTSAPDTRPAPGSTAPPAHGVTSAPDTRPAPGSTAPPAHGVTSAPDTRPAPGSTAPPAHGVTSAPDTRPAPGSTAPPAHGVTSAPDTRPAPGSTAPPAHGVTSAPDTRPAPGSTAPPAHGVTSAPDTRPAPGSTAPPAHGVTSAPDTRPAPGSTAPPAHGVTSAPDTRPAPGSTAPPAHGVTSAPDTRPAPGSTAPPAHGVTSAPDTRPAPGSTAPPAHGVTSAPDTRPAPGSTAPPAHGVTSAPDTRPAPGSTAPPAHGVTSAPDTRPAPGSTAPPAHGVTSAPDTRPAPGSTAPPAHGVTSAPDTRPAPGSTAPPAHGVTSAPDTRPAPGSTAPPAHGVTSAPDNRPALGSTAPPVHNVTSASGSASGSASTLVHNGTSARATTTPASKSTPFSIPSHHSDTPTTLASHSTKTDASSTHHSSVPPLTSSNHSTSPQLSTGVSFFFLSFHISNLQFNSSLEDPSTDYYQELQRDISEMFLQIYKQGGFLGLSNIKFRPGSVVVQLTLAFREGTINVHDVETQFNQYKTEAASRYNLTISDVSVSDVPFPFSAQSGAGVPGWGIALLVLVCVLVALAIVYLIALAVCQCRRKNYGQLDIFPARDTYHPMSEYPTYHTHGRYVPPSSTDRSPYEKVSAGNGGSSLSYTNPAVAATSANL

Sequence of MUC-1 glycoprotein on untreated ZR-75-1 cells (glycosylated MUC-1) (human) (P15941 24-1255): as the sequence (P15941 24-1255, form in doubt) above

% positive cells [1]: 7.49%
% positive cells [2]: 41.3%
Substance: SM3 (antibody)
